Where “and” joins values, the source holds several entries; their conditions need not be identical. Identical values can stand only once.
How the values were obtained:
[1] = system: wild type Chaetomium (CtL) laccase; type: biochemical, Chaetomium thermophilum; settings: pH 5
[2] = Specific activity towards ABTS; type: biochemical; settings: 25 mM succinate buffer pH 4.5, 25° C.
Procedure: The activity assay was carried out in accordance with the method developed by Niku-Paavola et al. (1988). The sample was diluted with 0.025 M succinate buffer, pH 4.5. […] The activity is expressed as nano katals.
(§1) Specific activities of the purified T. arenaria and C. thermophilum laccases were determined towards different laccase substrates.

[3] = Specific activity towards di-methoxy-phenol (DMP); type: biochemical; settings: 25 mM MES buffer, pH 5.5
Procedure: as §1

[4] = Specific activity towards syringaldazine; type: biochemical; settings: 25 mM MES buffer, pH 5.5
Procedure: as §1

[5] = Specific activity towards guaiacol; type: biochemical; settings: 25 mM MES buffer, pH 5.5
Procedure: as §1

[6] = Isoelectric focusing (pI); type: physicochemical; settings: pH range 3-9
Procedure: Molecular weight of the T. arenaria and C. thermophilum laccases were determined on SDS-PAGE according to Laemmli (1970) The gels used in the SDS-PAGE analysis were ready-made 12% Tris HCl gels (BioRad). Protein bands were visualized by staining with Coomassie Brilliant Blue (R 350; Pharmacia) and compared with molecular weight markers (Prestained Protein Marker Broad Range #7708S; New England BioLabs, Beverly, Mass.). The molecular weight of the both laccases was approximately 80 kDa. The isoelectric point of the laccases was determined with isoelectric focusing within the pH range of 3-9 (Pharmalyte IEF, Pharmacia) on a LKB 2117 Multiphor II Electrophoresis System (LKB Pharmacia, Bromma, Sweden) according to the manufacturer's instructions.
The purified recombinant Thielavia and Chaetomium laccases were characterized in terms of pH optimum, thermal stability, and pI as described in Example 2. The molecular weight was determined by MALDI-TOF mass spectrometry on a Ultraflex™ time-of-flight instrument (BrukerDaltonics, Germany) as previously described (Palonen et al., 2003). The redox-potentials of the T1 coppers of for CtLcc, and TaLcc2 laccases were determined by photometric copper titration in 0.1 M KH2PO4 (pH 6.0) as described by Xu et al. (1996) using the redox titrant couple K3Fe(CN)6/K4Fe(CN)6. The redox potential of TaLcc1 was determined with a combined Pt—AgCl/KCl microelectrode at pH 5.0 according to Sigoillot et al (2004). The characterization results are collected to Table 14.

[7] = Denim bleaching at different pH values; set-up: key to After laccase treatment L* / After laccase treatment b* / Increase of L*: CIE L*a*b* colour coordinates (illuminant D65), Minolta reflectance; settings: face side of denim, 30 min, 50° C.
Procedure: (§2) Lee Cooper jeans (MASI Company Oy, Finland) that were desized and treated with neutral ECOSTONE® cellulase were used as test material. Laccase treatments were performed in LP-2 Launder Ometer as follows. About 10 g of denim swatches (15×14 cm) were loaded into 1.2 liter containers containing 200 ml Mc Ilvaine's citrate phosphate buffer pH 5, 6 or 7 and the containers were temperated. Enzyme with or without the mediator (methyl syringate, DeniLite II Assist, Novozymes) was added as laccase activity units. Enzyme was dosed 200 nkat/g and the mediator 10 mg/g on the weight of fabric. […] The Launder Ometer was run at 50° C. for 30 min and after that the temperature in Launder was raised to 80° C. for 10 min. The swatches were carefully rinsed with warm water, dried half-dry in a tumbler and after that air dried.
(§3) The bleaching effect was evaluated by measuring the colour as reflectance values with the Minolta Chromameter CM 1000 (Minolta Co.) using L*a*b* color space coordinates (illuminant D65). The colour from both sides of the swatches was measured before and after the laccase treatment. Each measurement was the average of several measurements.

[8] = Denim bleaching at different temperatures; set-up: key to After laccase treatment L* / After laccase treatment b* / Increase of L*: CIE L*a*b* colour coordinates (illuminant D65), reflectance; settings: face side of denim; 30 min, 40° C., pH 6; enzyme 200 nkat/g, mediator 10 mg/g
Procedure: as §2, §3
The test system and denim were as in Example 7, except that the conditions during the laccase and mediator treatment in Launder were 30 min, pH 6 and temperature 30-70° C. (DeniLite II Base also at 80° C.) and the enzyme was inactivated by alkaline treatment instead of raising the temperature in Launder as follows. After removing swatches from the containers they were soaked in warm water containing NaOH (pH 11.5) for 10 min and rinsed carefully with warm water. The swatches were dried half-dry in a tumbler and after that air dried. The bleaching effect was evaluated by measuring the colour as reflectance values as in Example 7.

[9] = Stain removal, grass soiling; set-up: key to Grass L* / Grass a* / Grass b*: CIE L*a*b* color coordinates from reflectance; settings: for Grass L* / Grass a* / Grass b*: 60 min, pH 6
Procedure: (§4) Laccases CtLcc1, TaLcc2, TaLcc4 and Denilite II Base (Example 7) were tested for their ability to remove stains. The following artificially soiled test cloths were used: grass soiling (Art.164, EMPA Testmaterialen, Germany), tea soiling (Art. 167, EMPA Testmaterialen, Germany). The fabric was cut in 5.8×5.8 cm swatches. Laccase treatments were performed in LP-2 Launder Ometer as follows. About 5 g of soiled fabrics were loaded into 1.2 liter containers containing 150 ml Mc Ilvaine's citrate phosphate buffer pH 6 and the containers were temperated. Enzyme with or without the mediator (methyl syringate, DeniLite II Assist, Novozymes) was added as laccase activity units (Example 7). Enzyme was dosed 200 nkat/g and the mediator 10 mg/g on the weight of fabric, except at 40° C. dosages of 20 nkat/g and 2 mg/g were also used. The Launder Ometer was run at 40, 50 or 60° C. and pH 6 for 60 min. After that the swatches were carefully rinsed under running water and in shake flasks containing warm water and dried in the air.
(§5) The stain removal effect was evaluated by measuring the colour as reflectance values using L*a*b* color space coordinates (Example 7). The colour of the swatches was measured before and after the laccase treatment.

[10] = Stain removal, tea soiling; set-up: key to Tea L* / Tea a* / Tea b*: CIE L*a*b* color coordinates from reflectance; settings: 60 min, pH 6
Procedure: as §4, §5

[11] = pH 5, enzyme 200 nkat/g without the mediator, or mediator 10 mg/g alone
[12] = pH 5, enzyme 200 nkat/g, mediator 10 mg/g
[13] = pH 6, enzyme 200 nkat/g without the mediator, or mediator 10 mg/g alone
[14] = pH 6, enzyme 200 nkat/g, mediator 10 mg/g
[15] = pH 7, enzyme 200 nkat/g without the mediator, or mediator 10 mg/g alone
[16] = pH 7, enzyme 200 nkat/g, mediator 10 mg/g
[17] = 40° C., enzyme 20 nkat/g + mediator 2 mg/g (Mediator only: 0 nkat/g)
[18] = 40° C., enzyme 200 nkat/g + mediator 10 mg/g (Mediator only: 0 nkat/g)
[19] = 40° C., enzyme 200 nkat/g, mediator 0 mg/g
[20] = 50° C., enzyme 200 nkat/g + mediator 10 mg/g (Mediator only: 0 nkat/g)

## [F-].[Na+] [NaF]
[1]
  Inhibition (%) CtL: 40% and 70%

B1: TaLcc4: Thielavia arenaria ALKO 4197 laccase, SEQ ID NO: 45, produced in Trichoderma reesei (protein)
chain: MISRLLFTSSFTATLASALPGLLYAPHSSALLARSSCSGNTASTRSQWCDYSIDTDYTTEPVDTGVTREYWLELTDVTVSPDGVSRSAMAVNGSIPGPTIFADWGDTVVVHVTNSLSTSLNGTSIHWHGIRQNYTNQNDGVASITQCPLAVGESTTYTWKATQYGSSWYHSHFSLQAWEGVFGGIIINGPSTANYDEDLGMLFLNDWDHQTVDELYSSAETSGPPTLANGLINGTNVYGEDGDSSQTGTRLAVSFTSGTSYRMRLVNAAVDTHWKFSIGNHTMTVMAADLVPIEPYETTVLTIGMGQRYDIVVTADQADVADNFWMRAIPQSACSDNDSADNIRGIVYYGDSPGTPSTTGYDFEDACDDETANITPYISKTVSSAEWNDLETASVSRNSAGLFKWYLNSTTMLVDWAKPTLEMVTDNVTEYDSDDAIIELNEANQWVYMVVQTTLQVPHPIHLHGHDFFILAQGSGTYDSSTVTLKTDNPPRRDTAMLPSQGYLVMAWETDNPGVWLMHCHIGWHTSEGFALQFIERKSEIASIVSTSTMKDICTKWEEFQEEYSIEQEDSGV
modifications: Thielavia arenaria ALKO4197; (1)..(573) Deduced amino acid sequence of Thielavia arenaria ALKO4197 TaLcc4
[2]
  Specific activity on ABTS: 1000 nkat/mg
[3]
  Specific activity on DMP: 110 nkat/mg
[4]
  Specific activity on syringaldazin: 52 nkat/mg
[5]
  Specific activity on guaiacol: 5 nkat/mg
[6]
  pI: 3.0
[7]; [11]
  After laccase treatment L*: 29.40
  After laccase treatment b*: −18.70
  Increase of L*: −0.04
[7]; [12]
  After laccase treatment L*: 29.17
  After laccase treatment b*: −18.47
  Increase of L*: 1.01
[7]; [13]
  After laccase treatment L*: 27.68
  After laccase treatment b*: −18.76
  Increase of L*: 0.24
[7]; [14]
  After laccase treatment L*: 29.55
  After laccase treatment b*: −18.11
  Increase of L*: 1.35
[7]; [15]
  After laccase treatment L*: 29.29
  After laccase treatment b*: −18.89
  Increase of L*: 0.50
[7]; [16]
  After laccase treatment L*: 28.31
  After laccase treatment b*: −18.33
  Increase of L*: 0.47
[8]
  After laccase treatment L*: 29.23
  After laccase treatment b*: −18.44
  Increase of L*: 0.12
[9]; 50° C.
  greenness reduced (grass): ca. 2 units
[9]; [17]
  Grass L*: 78.53
  Grass a*: −6.07
  Grass b*: 19.33
[9]; [18]
  Grass L*: 78.94
  Grass a*: −3.77
  Grass b*: 16.77
[9]; [19]
  Grass L*: 79.84
  Grass a*: −4.98
  Grass b*: 17.62
[9]; [20]
  Grass L*: 78.62
  Grass a*: −4.00
  Grass b*: 17.16
[10]; [17]
  Tea L*: 75.09
  Tea a*: 5.73
  Tea b*: 22.08
[10]; [18]
  Tea L*: 74.56
  Tea a*: 5.58
  Tea b*: 23.55
[10]; [19]
  Tea L*: 76.74
  Tea a*: 5.05
  Tea b*: 21.67
[10]; [20]
  Tea L*: 75.13
  Tea a*: 5.19
  Tea b*: 22.44
